Drawing on the array DNA melting data of Ke et al., this text covers Tm for 66 substances.

The Tm is the temperature at which the thermal transition is half complete.

A short description of this series: melting temperature; melt of duplexes. Conditions: sodium 0.0675 M; strand 1 µM.
As for “CGACGTGCAACATGTGCTG+CAGCACATGCAGCACGTCG ((((((((..(((((((((+)))))))))..))))))))”, the Tm is 53.9 °C.

For the substance “CGACGTGCAGGATGTGCTG+CAGCACATCGTGCACGTCG (((((((((.(((((((((+))))))))).)))))))))”, the Tm came to 58.3 °C. Regarding “CGACGTGCTTTATGTGCTG+CAGCACATCGTGCACGTCG ((((((((...((((((((+))))))))...))))))))”, the Tm worked out at 42.3 °C. With “CGACGTGCGTCATGTGCTG+CAGCACATGGAGCACGTCG ((((((((..(((((((((+)))))))))..))))))))”, the Tm stood at 58.4 °C. “CGACGTGCAACATGTGCTG+CAGCACATAGTGCACGTCG (((((((((..((((((((+))))))))..)))))))))”: the Tm worked out at 48.9 °C. To “CGACGTGCTAGATGTGCTG+CAGCACATTAAGCACGTCG (((((((((..((((((((+))))))))..)))))))))” belongs 53.3 °C; to “CGACGTGCCACATGTGCTG+CAGCACATGTCGCACGTCG ((((((((.((((((((((+)))))))))).))))))))”, 56.4 °C. With “CGACGTGCCGCATGTGCTG+CAGCACATGGGGCACGTCG (((((((((.(((((((((+))))))))).)))))))))” the figure was 62.6 °C; with “CGACGTGCACTATGTGCTG+CAGCACATTGCGCACGTCG ((((((((.(.((((((((+)))))))).).))))))))”, 48.8 °C; with “CGACGTGCGTGATGTGCTG+CAGCACATCTTGCACGTCG ((((((((..(((((((((+)))))))))..))))))))”, 55.6 °C.

Regarding “CGACGTGCACAATGTGCTG+CAGCACATACGGCACGTCG ((((((((...((((((((+))))))))...))))))))”, the Tm turned out to be 44.7 °C.

On to “CGACGTGCCGGATGTGCTG+CAGCACATCCTGCACGTCG ((((((((.((((((((((+)))))))))).))))))))”, for which the Tm was determined as 58.9 °C. For “CGACGTGCACGATGTGCTG+CAGCACATGCAGCACGTCG ((((((((...((((((((+))))))))...))))))))”, the Tm turned out to be 45.9 °C. Regarding “CGACGTGCGCGATGTGCTG+CAGCACATTGAGCACGTCG ((((((((.(.((((((((+)))))))).).))))))))”, the Tm was 56.8 °C. Turning to “CGACGTGCGATATGTGCTG+CAGCACATGCAGCACGTCG ((((((((...((((((((+))))))))...))))))))”, the Tm came out at 53.6 °C. As to “CGACGTGCTCCATGTGCTG+CAGCACATCATGCACGTCG ((((((((...((((((((+))))))))...))))))))”, the Tm was 47.7 °C. As to “CGACGTGCCGTATGTGCTG+CAGCACATTCAGCACGTCG ((((((((.(.((((((((+)))))))).).))))))))”, the Tm was found to be 50.1 °C. On to “CGACGTGCAGGATGTGCTG+CAGCACATATGGCACGTCG ((((((((...((((((((+))))))))...))))))))”, for which the Tm came to 51.3 °C. Take “CGACGTGCGCTATGTGCTG+CAGCACATACGGCACGTCG ((((((((..(((((((((+)))))))))..))))))))”: the Tm was determined as 50.6 °C. Turning to “CGACGTGCTGTATGTGCTG+CAGCACATTTGGCACGTCG ((((((((...((((((((+))))))))...))))))))”, the Tm was 50.4 °C. For the substance “CGACGTGCGAAATGTGCTG+CAGCACATATTGCACGTCG ((((((((.(.((((((((+)))))))).).))))))))”, the Tm stood at 51.9 °C.

For the substance “CGACGTGCTCCATGTGCTG+CAGCACATTCAGCACGTCG (((((((((..((((((((+))))))))..)))))))))”, the Tm worked out at 48.7 °C. As for “CGACGTGCCATATGTGCTG+CAGCACATTAAGCACGTCG ((((((((...((((((((+))))))))...))))))))”, the Tm was 50.1 °C. With “CGACGTGCCGGATGTGCTG+CAGCACATAATGCACGTCG ((((((((...((((((((+))))))))...))))))))”, the Tm was 48.6 °C. Regarding “CGACGTGCGGTATGTGCTG+CAGCACATACCGCACGTCG (((((((((((((((((((+)))))))))))))))))))”, the midpoint of thermal melting (Tm) was found to be 66 °C.

For the substance “CGACGTGCAGCATGTGCTG+CAGCACATATTGCACGTCG (((((((((..((((((((+))))))))..)))))))))”, the Tm came to 49.1 °C.

As for “CGACGTGCTAAATGTGCTG+CAGCACATCCAGCACGTCG (((((((((..((((((((+))))))))..)))))))))”, the Tm was 50.8 °C.

Turning to “CGACGTGCGAGATGTGCTG+CAGCACATACGGCACGTCG ((((((((...((((((((+))))))))...))))))))”, the Tm was 50.1 °C. With “CGACGTGCCCCATGTGCTG+CAGCACATTAAGCACGTCG ((((((((...((((((((+))))))))...))))))))” the figure was 47.2 °C; with “CGACGTGCAACATGTGCTG+CAGCACATAAGGCACGTCG ((((((((...((((((((+))))))))...))))))))”, 47.8 °C; with “CGACGTGCTGTATGTGCTG+CAGCACATGGGGCACGTCG ((((((((...((((((((+))))))))...))))))))”, 51.4 °C.

Consider “CGACGTGCTCGATGTGCTG+CAGCACATGCTGCACGTCG ((((((((...((((((((+))))))))...))))))))”, for which the Tm is 47 °C.

On to “CGACGTGCTCAATGTGCTG+CAGCACATCACGCACGTCG ((((((((...((((((((+))))))))...))))))))”, for which the Tm came to 48.1 °C. Turning to “CGACGTGCATCATGTGCTG+CAGCACATTTCGCACGTCG ((((((((...((((((((+))))))))...))))))))”, the Tm is 46.9 °C. Consider “CGACGTGCAATATGTGCTG+CAGCACATCTTGCACGTCG ((((((((((.((((((((+)))))))).))))))))))”, for which the Tm turned out to be 54.8 °C. With “CGACGTGCGTTATGTGCTG+CAGCACATTGGGCACGTCG ((((((((...((((((((+))))))))...))))))))” the figure was 50.3 °C. To “CGACGTGCTCGATGTGCTG+CAGCACATGTGGCACGTCG ((((((((...((((((((+))))))))...))))))))” belongs 50.7 °C. “CGACGTGCAGTATGTGCTG+CAGCACATTCCGCACGTCG ((((((((.(.((((((((+)))))))).).))))))))”: the Tm was 50.1 °C. Take “CGACGTGCAGTATGTGCTG+CAGCACATTGCGCACGTCG ((((((((...((((((((+))))))))...))))))))”: the Tm was 49.3 °C. To “CGACGTGCGAGATGTGCTG+CAGCACATTCTGCACGTCG ((((((((...((((((((+))))))))...))))))))” belongs 52.9 °C; to “CGACGTGCTCAATGTGCTG+CAGCACATCTGGCACGTCG ((((((((...((((((((+))))))))...))))))))”, 50.3 °C.

As for “CGACGTGCTCCATGTGCTG+CAGCACATTTAGCACGTCG (((((((((..((((((((+))))))))..)))))))))”, the Tm was found to be 49.4 °C. On to “CGACGTGCTGGATGTGCTG+CAGCACATTGGGCACGTCG ((((((((...((((((((+))))))))...))))))))”, for which the Tm worked out at 52 °C. To “CGACGTGCCGAATGTGCTG+CAGCACATGCAGCACGTCG ((((((((.(.((((((((+)))))))).).))))))))” belongs 52.6 °C; to “CGACGTGCCCTATGTGCTG+CAGCACATGACGCACGTCG ((((((((...((((((((+))))))))...))))))))”, 44 °C; to “CGACGTGCGCGATGTGCTG+CAGCACATAATGCACGTCG ((((((((...((((((((+))))))))...))))))))”, 50 °C.

Turning to “CGACGTGCCTTATGTGCTG+CAGCACATCGCGCACGTCG ((((((((...((((((((+))))))))...))))))))”, the Tm worked out at 47.2 °C. Regarding “CGACGTGCTGAATGTGCTG+CAGCACATAACGCACGTCG ((((((((...((((((((+))))))))...))))))))”, the Tm was 50 °C.

Regarding “CGACGTGCGTGATGTGCTG+CAGCACATATGGCACGTCG ((((((((...((((((((+))))))))...))))))))”, the Tm was determined as 50 °C. Take “CGACGTGCTCTATGTGCTG+CAGCACATTTAGCACGTCG (((((((((..((((((((+))))))))..)))))))))”: the Tm was 51 °C. To “CGACGTGCTATATGTGCTG+CAGCACATCGAGCACGTCG (((((((((..((((((((+))))))))..)))))))))” belongs 51.5 °C; to “CGACGTGCGTTATGTGCTG+CAGCACATGACGCACGTCG ((((((((((.((((((((+)))))))).))))))))))”, 58.9 °C; to “CGACGTGCCGCATGTGCTG+CAGCACATGAGGCACGTCG (((((((((.(((((((((+))))))))).)))))))))”, 62.6 °C. To “CGACGTGCTCGATGTGCTG+CAGCACATAGTGCACGTCG ((((((((.(.((((((((+)))))))).).))))))))” belongs 49.8 °C. With “CGACGTGCTACATGTGCTG+CAGCACATTCCGCACGTCG ((((((((...((((((((+))))))))...))))))))” the figure was 47.2 °C. On to “CGACGTGCCTGATGTGCTG+CAGCACATGTCGCACGTCG ((((((((...((((((((+))))))))...))))))))”, for which the Tm was 48 °C. In the case of “CGACGTGCGTCATGTGCTG+CAGCACATTCCGCACGTCG (((((((((..((((((((+))))))))..)))))))))”, the Tm worked out at 52.8 °C. Turning to “CGACGTGCAGAATGTGCTG+CAGCACATCAGGCACGTCG ((((((((...((((((((+))))))))...))))))))”, the Tm is 51.1 °C. With “CGACGTGCGCAATGTGCTG+CAGCACATCTTGCACGTCG ((((((((...((((((((+))))))))...))))))))”, the Tm was 48.7 °C. With “CGACGTGCATGATGTGCTG+CAGCACATAAGGCACGTCG ((((((((.(.((((((((+)))))))).).))))))))” the figure was 52.8 °C; with “CGACGTGCCCCATGTGCTG+CAGCACATCTAGCACGTCG ((((((((...((((((((+))))))))...))))))))”, 47.3 °C. With “CGACGTGCCTCATGTGCTG+CAGCACATCCCGCACGTCG ((((((((...((((((((+))))))))...))))))))” the figure was 46.5 °C; with “CGACGTGCCATATGTGCTG+CAGCACATCTGGCACGTCG ((((((((((.((((((((+)))))))).))))))))))”, 57.1 °C. On to “CGACGTGCCAAATGTGCTG+CAGCACATTGGGCACGTCG (((((((((.(((((((((+))))))))).)))))))))”, for which the Tm came to 59.5 °C. For the substance “CGACGTGCTTGATGTGCTG+CAGCACATTCGGCACGTCG ((((((((...((((((((+))))))))...))))))))”, the Tm was 50.1 °C.

As for “CGACGTGCAGGATGTGCTG+CAGCACATCATGCACGTCG (((((((((.(((((((((+))))))))).)))))))))”, the Tm worked out at 60.2 °C.
